Measurements taken from patent publication US20020058626A1, “Agents for preventing and treating thrombocytopenia” (CHUGAI SEIYAKU KABUSHIKI KAISHA, priority 1996, published 2002).

Tests used:
platelet count [1] = experiment: Effectiveness of PTH derivative, daily administration to mouse (peripheral platelet count); assay type: in vivo; settings: C57B1/6N mice, 200 μg/kg subcutaneous once a day for six days, 24 h after final administration; FIG. 3
Experimental: Ten-week old male C57B1/6N mice as purchased from Japan Charles River Co., Ltd. were used in the experiment.
Drug solutions to be administered were prepared basically from human PTH(1-84) and human PTH(1-34) by the same procedure as in Example 1 to give a drug concentration of 20 μg/mL.
Eighteen mice were divided into three groups, which were administered subcutaneously with the two drug solutions and a control (citrate buffer) for six days on a once-a-day basis in a volume of 10 mL/kg. […] The administration was initiated at 10 a.m.
After 24 h of the final administration, a blood sample was withdrawn from each mouse through the orbital vein. Peripheral corpuscle counts were obtained with an automatic corpuscle counter F-800 (TOA MEDICAL ELECTRONICS CO., LTD)

platelet counts = experiment: Test for single-dose administration to mouse (peripheral platelet count); assay type: in vivo; settings: C57B1/6N mice, single dose 10 μg/kg through the tail vein, 6 and 9 h after the administration; FIG. 1
Experimental: Nine-week old male C57B1/6N mice as purchased from Japan Charles River Co. Ltd. were used in the experiment.
Human PTH(1-84) was dissolved in a citrate buffer (pH 5; containing 0.05% of Tween 80) at final concentrations of 1, 0.2 and 0.04 ˜g/mL so as to prepare the drug solutions to be administered.
Each of the thus prepared drug solutions and a control (citrate buffer) was administered to 15 mice through the tail vein in a volume of 10 mL/kg. […] The administration was initiated at 10 a.m.
After 3, 6 and 9 hours of the administration, five mice were picked up at random from each group of animals and blood samples were withdrawn through the orbital vein. At 10 a.m. on the same day, separate blood samples were taken from untreated mice (four in number) to obtain the preadministration value. Peripheral corpuscle counts were obtained with an automatic corpuscle counter F-800 (TOA MEDICAL ELECTRONICS CO., LTD.)

platelet count [2] = experiment: Test for daily administration to mouse (peripheral platelet count); assay type: in vivo; settings: C57B1/6N mice, subcutaneous once a day, FIG. 2
Experimental: Nine-week old male C57B1/6N mice as purchased from Japan Charles River Co., Ltd. were used in the experiment.
Drug solutions to be administered were prepared basically by the same procedure as in Example 1 to give drug concentrations of 5, 20 and 80 μg/mL.
The mice under test were divided into four groups, which were administered subcutaneously with the three drug solutions and a control (citrate buffer) once a day in a volume of 10 mL/kg. […] The administration was initiated at 10 a.m.
On days 5, 7 and 9 after the start of administration, five or six mice were picked up at random from each group of animals and blood samples were withdrawn through the orbital vein. The sampling of blood was timed to occur 24 h of the final administration. Separate blood samples were taken from untreated mice (five in number) to obtain the value for normal mouse. Peripheral corpuscle counts were obtained with an automatic corpuscle counter F-800(TOA MEDICAL ELECTRONICS CO., LTD.).

platelet count [3] = experiment: Test for daily administration to rabbit (platelet count); assay type: in vivo; settings: three rabbits, FIG. 4
Experimental: Six 12-15 week old male Japanese albino rabbits JW/CSK were used in the experiment. The animals were individually kept in aluminum rabbit bracket cages Rb-1 (350^w×500^d×350^h mm) in a vavarium in a specific pathogen-free environment under the following conditions: temperature, 24±2° C.; humidity, 50±10%; illumination, light turned on at 5:00 and turned off at 19:00; ventilation, 15 changes/hr. Each animal was supplied with 120 g of a radiation-sterilized feed for rabbits RM (purchased from Funahashi Farm) per day. The animals were also allowed to drink to tap water ad libitum from an automatic water feeder.
Human PTH(1-84) was administered in a volume of 2 mL/vial at a concentration of 200 μg/mL. A solvent was also supplied in a volume of 2 mL/vial. Both the drug and the control were stored at −135° C. until use.
PTH (200 μg/kg) was administered to the rabbits subcutaneously at the back of their neck for 13 consecutive days. The solvent was similarly administered in the same volume as the dose of a rh-PTH solution calculated from their body weight.
Blood samples (0.5 mL) were withdrawn from the rabbits through the lateral auricular vein before the administration and on days 2, 6, 9 and 13 during the administration period. […]

[4] = system: BFU-E (precursor cells of erythrocytes); settings: report by Meytes et al, J. Clin. Invest. Vol. 67, 1263-1269:1981; cited from earlier work
[5] = system: CFU-GM (precursor cells of granulocytes and macrophages); settings: report by Meytes et al, J. Clin. Invest. Vol. 67, 1263-1269:1981; cited from earlier work

Row | Molecule | platelet increasing action compared with PTH(1-84) (platelet count [1]) | platelet counts versus control (platelet counts) | platelet count versus control, day 5 (platelet count [2]; 200 and 800 μg/kg groups only, day 5, 24 h after final administration) | platelet count versus control, day 7 (platelet count [2]; all treated groups (50, 200 and 800 μg/kg), day 7) | platelet count on day 13 (platelet count [3]; 200 μg/kg subcutaneous daily for 13 days, day 13) | platelet count relative to the initial value, increase from day 2 until day 6 (platelet count [3]; 200 μg/kg subcutaneous daily) | in vitro colony formation by BFU-E [4] | in vitro colony formation by CFU-GM [5]
1 | human PTH(1-34) (SVSEIQLMHNLGKHLNSMERVEWLRKKLQDVHNF; Parathyroid hormone; UniProt P01270 32-65, looked up, fragment) [PTH(134), partial peptide of PTH composed of 34 amino acids from the N terminus; purchased from Peptide Institute, Inc] | comparable platelet increasing action to PTH(1-84) |  |  |  |  |  |  | 
2 | human PTH(1-84) (protein, UniProt P01270 32-115, looked up, Parathyroid hormone) Parathyroid hormone: SVSEIQLMHNLGKHLNSMERVEWLRKKLQDVHNFVALGAPLAPRDAGSQRPRKKEDNVLVESHEKSLGEADKADVNVLTKAKSQ |  | significant increase in platelet counts over the control | tendency to increase | significantly higher in platelet count than the control | substantially returned to the initial level | two to four | interfered with | interfered with
